Measurements taken from publication PMC6173795, “The FapF Amyloid Secretion Transporter Possesses an Atypical Asymmetric Coiled Coil” (Journal of Molecular Biology, 2018).

B1: FapFCC synthetic peptide (predicted coiled-coil region of FapF, residues 3-40) (peptide)
chain: DVDIETLKQELLELKQRYEAQQKALAVLEQRVRQVEDQ
notes: FapF amyloid secretion transporter of Pseudomonas, coiled-coil region, residues 3-40; Parallel trimer; six chains (two trimers) in the asymmetric unit of the crystal; also called FapFCC peptide; periplasmic domain of FapF; source: synthetic peptide (ChinaPeptides, 97.5% purity)
B2: recombinant FapF3-40 (FapFCC), wild type (domain or fragment, Pseudomonas UK4)
chain: B1 chain
notes: Cloned into pNIC28-Bsa4 (vector: Addgene plasmid no. 26103); also called recombinant FapFCC; not shown: His6, N-terminal, cleaved

Legend:
[1] = biological target: the molecule itself; assay: crystal structure; synthetic peptide at 10 mg/ml; 0.2 M zinc acetate dihydrate, 0.1 M sodium cacodylate pH 6.5, 10% v/v 2-propanol; data processed in P1, six chains in the asymmetric unit
[2] = biological target: the molecule itself; assay: SEC-MALS; Superdex 75 10/300 GL, phosphate buffer (20 mM PO4, 150 mM NaCl, pH 6.8), 100 ul FapF3-40 samples at 1 mg/ml, 0.25 ml/min; size exclusion profiles of wild type, R33A and R33E

| Protein | stoichiometry N [1] | stoichiometry N [2] |
| --- | --- | --- |
| B1 | 3 |  |
| B2 |  | 3 |
